According to paper PMC3897609, “Heparanase Interacts with Resistin and Augments Its Activity” (PLoS ONE, 2014):

Target: T1, cMyc-tagged 65-kDa latent heparanase (human, UniProt Q9Y251 36-543)
T1 construct: heparanase, human, 65-kDa latent (unprocessed) form; also called cMyc-latent heparanase; latent cMyc-heparanase; source: medium conditioned by heparanase infected CHO cells, purified (heparin column)
T1 sequence (looked up): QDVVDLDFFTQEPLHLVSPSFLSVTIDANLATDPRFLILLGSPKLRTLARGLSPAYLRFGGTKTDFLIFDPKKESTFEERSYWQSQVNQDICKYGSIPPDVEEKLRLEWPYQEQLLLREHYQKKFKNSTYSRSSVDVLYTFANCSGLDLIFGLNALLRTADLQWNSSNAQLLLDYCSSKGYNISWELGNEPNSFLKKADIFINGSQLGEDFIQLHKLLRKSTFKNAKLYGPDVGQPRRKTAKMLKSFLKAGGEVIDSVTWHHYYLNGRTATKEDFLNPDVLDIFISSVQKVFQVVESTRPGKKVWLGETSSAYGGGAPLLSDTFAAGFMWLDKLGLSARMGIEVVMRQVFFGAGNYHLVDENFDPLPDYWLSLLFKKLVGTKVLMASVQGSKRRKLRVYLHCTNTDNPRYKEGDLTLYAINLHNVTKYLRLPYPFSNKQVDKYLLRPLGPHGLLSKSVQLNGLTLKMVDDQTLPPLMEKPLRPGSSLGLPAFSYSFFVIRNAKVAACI
Test: ELISA; competition: cMyc latent heparanase as coating layer; analyte resistin (200 ng/ml) preincubated 30 min at RT with the competitor (active heparanase, or leptin as control); bound resistin detected by anti resistin antibodies
Conditions: both partners purified

binding result: binds
B1: human recombinant resistin expressed in HEK 293 (natural protein, UniProt Q9HD89 19-108, looked up)
chain: KTLCSMEEAINERIQEVAGSLIFRAISSIGLECQSVTSRGDLATCPRGFAVTGCTCGSACGSWDVRAETTCHCQCAGMDWTGARCCRVQP
notes: resistin, human, recombinant; Runs as a 12 kDa band under reducing conditions; also called RETN; source: HEK 293, pure preparation, gift from Serono
